Assay: yeast display, Sf9 membrane polyspecificity reagent, FACS + sequencing; frameworks hold sequencing errors
Method in brief: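 Synthetic nanobody libraries on Saccharomyces cerevisiae BJ5465 were galactose-induced for 36–48 hours, stained 1 hour at 4 °C with 10% biotinylated, detergent-solubilized Sf9 membrane reagent and enriched on streptavidin microbeads. FACS then separated cells into low and high (top ~1%) gates by anti-HA (expression) and streptavidin (reagent binding) fluorescence. Genes were colony-PCR amplified, MiSeq 2 × 250 sequenced and CDR-length filtered. A clone's polyreactivity label is that of its gate of origin.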

Row | Sequence | polyreactivity (PSR sort gate)
1 | QVQLVESGGGLVQAGGSLRLSCAASGFTFLAYAMGWYRQAPGKERELGAAISKSGGSTYYADSVKGRFTISRDNAKITVYLQMNSLKPEDTAVYYCNAGRRIKFYGSYDYWGQGTQVTVSS | high polyreactivity
2 | QVQLVESGGGLVQAGGSLRLSCAASGFTFLAYAMGWYRQAPGKERELVAAISRSGGRTYYADSVKGRFTISRDNAKNTVYLQMNSLNPEDTAVYYCAAPPRANLFDYWGQGTQVTVSS | high polyreactivity
3 | QVQLVESGGGLVQAGGSLRLSCAASGFTFLFYAKGWYRHAPGKEMELVAAISWSGDTTYYADSVKGRFTISLDNSKNTVYLQMNSLKPEDTAVYYCNAESNIFGYDYWGQGTQVTVTS | high polyreactivity
4 | QVQLVESGGGLVQAGGSLRLSCAASGFTFLINAMGWYRQAPGKERELVAAIRSGGSTNYADSVKGRFTISRDNAKNTVYFQMNSLKPEDTAVYYCAARRYYPYKYRYGYWGQGTQVTVSS | high polyreactivity
5 | QVQLVESGGGLVQAGGSLRLSCAASGFTFLIYAMGWYRQAPGKERELVAAITWRGSGTYYADSVKGRFTISRDNAKNTVYLQMNSLNPEDTAVFYCGARTARRTYDYWGQGTQVTVSS | low polyreactivity
6 | QVQLVESGGGLVQAGGSLRLSCAASGFTFLKYAMGWYIQAPGKERELVARITSGGRTYYADSVKGRFTISRDNAKNTVYLQMNSLKPEDTAVYYCNAVKSYASLYAGFYYWGQGTQVTVSS | high polyreactivity
7 | QVQLVESGGGLVQAGGSLRLSCAASGFTFLNYAMGWYRQAPGKERELVAAISFSTGRTYYADSVKGRFTISRDNAKNTVYLQMNSLKPEDTAVYYCYVLHRSDSGYYYRYDYWGQVTQVTVSS | high polyreactivity
8 | QVQLVESGGGLVQAGGSLRLSCAASGFTFLRYALGWYRQAPGKERELVAAISTSGGSTSYADSVKGRFTITRDNAKNTVYLQMNSLKPEDTAVYYCNAVLYKVSISEYDYWGQGTQVTVSS | high polyreactivity
9 | QVQLVESGGGLVQAGGSLRLSCAASGFTFLRYAMGWYRQAPGKERELVAGITSRGASTYYADSVKGRFTISRDNAKTTVYLQINSLKPEDTAVYYCAADGSHTRYRYDYWGQGTQVTVSS | high polyreactivity
10 | QVQLVESGGGLVQAGGSLRLSCAASGFTFLSYTMGWYRQAPGKERELVASITASGTRTYYADSVKGRFTISRDNAKNTVYLQMNSLKPEDTAVYYCNRVGFDYWGQGTQVTVSS | low polyreactivity
11 | QVQLVESGGGLVQAGGSLRLSCAASGFTFLSYTMGWYSQAPGKERELVASITASGTRTYYADSVKGRFIISRDNAKNTVYLQMNRLKPEDTAVYYFAARWISVWSEGAEHDYWGQGTQVTVSS | low polyreactivity
12 | QVQLVESGGGLVQAGGSLRLSCAASGFTFLYNAMGWYRQAPGKERELVAAIDSGGMTNYADSVKGRFTISRDNAKNTVYLQMKSLKPEDTAVYYCAARFTQYITSDDGHYYYWGQGTQVTVSS | low polyreactivity
13 | QVQLVESGGGLVQAGGSLRLSCAASGFTFLYNAMGWYRQAPVKERELVASINSGGSTNYADSVKGRFTISRDNAKNTVYLQMNSLKPEDTAVYYCNAKRHVRKGDYWGLGTQVTVSS | low polyreactivity
14 | QVQLVESGGGLVQAGGSLRLSCAASGFTFLYNVMGWYRQAPGKERELVAAISQSGTDTYYADSVKGRFTISRDNAKNTVYLQKNSLKPEDTAVYYCATEYYSQPRDDYWGQGTQVTVSS | low polyreactivity
15 | QVQLVESGGGLVQAGGSLRLSCAASGFTFLYYDMGWYRQAPGKERELVAAITNDDSTYYADSVKGRFTISRDNAKNTVYLQMNSLKPEDTAVYYCAADSVYGSDEYWGQGTQVTVSS | high polyreactivity
16 | QVQLVESGGGLVQAGGSLRLSCAASGFTFNANAMGWYRQAPGKERELVAFITRSGGRTYYADSVKGRFTISRDNAKNTVYLQMNSLKPEDTAVYYCAKEGPSRVYQGTDSASDYWGQGTQVTVSS | high polyreactivity
17 | QVQLVESGGGLVQAGGSLRLSCAASGFTFNRNAMGWYIQAPGKERELVAAISWSGGSTYYADSVKGRFTISRDNAKNTVYLQMNSLKPQDTEVYYCAKGYRRVYGPFYFWGQGTQVTVSS | low polyreactivity
18 | QVQLVESGGGLVQAGGSLRLSCAASGFTFNRYAMAWDRQAPGKERELVATITSGGNTYYADSVKGRFTIARDNAKNTVYLQMNSLKPEDTAVYYCNQLGWYSVYRRDYWGQGTQVTVSS | high polyreactivity
19 | QVQLVESGGGLVQAGGSLRLSCAASGFTFNRYAMGWYIEAPGKERELVASITTGGRTNYADSVKGRFTISRDNAKNTVYLQMNSLKPVDTAVYYCAADYCYFYRYYYWGQGTQVTVSS | high polyreactivity
20 | QVQLVESGGGLVQAGGSLRLSCAASGFTFNRYAMGWYRPAPGKERELVAAISRSTATTYYADSVKGRFTISRDNAMNTVYLQMNSLKPEDTAVFYCNSPQRYWPPYGYWGQGTQVTVSS | high polyreactivity
21 | QVQLVESGGGLVQAGGSLRLSCAASGFTFNRYAMGWYRQAPGKERELVAAISWSGTSTYYADSVKGRFTISRDNAKNTVYLQMNSLKPEDPAVYYCAAYPALTGGLPKSRGYYWGQGTQVTVSS | high polyreactivity
22 | QVQLVESGGGLVQAGGSLRLSCAASGFTFNRYAMGWYRQAPGKERELVARITRGGSTKYADSVKGRFTISRDNAKNTVYLQMNSLKPEDTAVYYCAADYGGFLGYDYWGQGTQVTVSS | high polyreactivity

Row | Sequence | polyreactivity (PSR sort gate)
23 | QVQLVESGGGLVQAGGSLRLSCAASGFTFNRYAMGWYRQAPGKERELVATITSGGNTYYADSVKGRFTISRDNAKNTVYLQMNSLKPEDTAVYYCNKRGWYSVYRRDYWGQGTQVTVSS | high polyreactivity
24 | QVQLVESGGGLVQAGGSLRLSCAASGFTFNRYVMGWYRQAPGKERELVAAIDSGDSTYYADSVKGRFTISRDNAKNTVYLQMNSLKPEDTAVFYCAAEFKSKFFSDIFDNDYDYWGQGTQVSVSS | high polyreactivity
25 | QVQLVESGGGLVQAGGSLRLSCAASGFTFNSYDMYWVRQAPGKGLEWVSSINTNGGSTYYADSVKGRFTISRDNAKNTVYLQMNSLKPEDTAVYYCAADGDTVGHSYRYDYWGQGTQVTVSS | low polyreactivity
26 | QVQLVESGGGLVQAGGSLRLSCAASGFTFNYNTMGWYRQAPGKERELVARISRSGGRTYYADSVKGRFTISRDNAKNTVYLQMNSLKPEDTAVYYCNTDYYGVRHRYDYWGQGTQVTVSS | high polyreactivity
27 | QVQLVESGGGLVQAGGSLRLSCAASGFTFNYYAMGSYRQAPGKERELVAAITWRSGRTSYADSVKGRFTISRDNAKNTVYLQMNSLKPEDTAVYYCAKYPIYSGLTRYGYWGQGTQVTVSS | high polyreactivity
28 | QVQLVESGGGLVQAGGSLRLSCAASGFTFNYYAMGWYRQAPGKERELVAAISRSGGNTYYADSVKGRFTISRDNAKNTVYLQMNSLKPEDTAVYYCAAYLRSYVRYYYWGQGTQVTVSS | high polyreactivity
29 | QVQLVESGGGLVQAGGSLRLSCAASGFTFNYYPMGWYRQAPGKERELVAAIDSGGNTYYADSVKGRFTISRDNAKNTVYLQMNSLKPEDTAVYYCAAYRDYQYDFWGQGTQVTVSS | low polyreactivity
30 | QVQLVESGGGLVQAGGSLRLSCAASGFTFPDYAMGWYRQAPGKERELVAAISSDGSTYYADSVKGPFTISRDNAKNTVYLQMNSLKPEDTAVYYCAAYVVWLYGDDYWGQGTQVTVSS | low polyreactivity
31 | QVQLVESGGGLVQAGGSLRLSCAASGFTFPEYSMGWYRQAPGKERELVAAITRRGTTTYYADSVKGRFTISRYTAKNTVYLQMNILKPEDTAVYYCAALAWSAYDYWGQGTQVTVSS | high polyreactivity
32 | QVQLVESGGGLVQAGGSLRLSCAASGFTFPFYTMGWYRQAPGKERELVAAISRSGASTFYADSVKGRFTISRDNAKNTGYLQMNSLKPEDTAVYYCAGRRGYAPYEYWGQGTQVTVSS | high polyreactivity
33 | QVQLVESGGGLVQAGGSLRLSCAASGFTFPFYTMGWYRQAPGKERELVAAITRSGASTFYADSVKGRFTISRDNAKNTVYLQMNSLKPEDTAVYYCAARRGYAPYEYWGQGTQVNVSS | high polyreactivity
34 | QVQLVESGGGLVQAGGSLRLSCAASGFTFPFYTMGWYRQAPGKERELVAAITRSGASTFYADSVKGRFTISRDNAMNTVYLQMNSLKPEDTAVYYCATQLHRYYQDDYWGQGTQVTVSS | high polyreactivity
35 | QVQLVESGGGLVQAGGSLRLSCAASGFTFPGDAMGWYRQAPGKERELVAAIDTSGGNTYADSVKGRFTISRDNAKNTVYLQMNSLKPEDTAVYYCAADYYYVYSSFGHYYWGQGTQVTVSS | low polyreactivity
36 | QVQLVESGGGLVQAGGSLRLSCAASGFTFPGYAMGWYRQAPGKERELVAAISKRGGSTYYADSVKGRFTISRDNAKNTVYLQMNSLKPEDTAVYYCAKSRRGSFYYPYTYTKSGYEYWGQGTQVTVSS | high polyreactivity
37 | QVQLVESGGGLVQAGGSLRLSCAASGFTFPGYAMGWYRQAPGKERELVAAISSSGGSTYYADSVKGRFTISRDNAKNTVYLQMNSLKPEDTAVYYCAARHGQSWQWLEYDYWGQGTQVTVSS | low polyreactivity
38 | QVQLVESGGGLVQAGGSLRLSCAASGFTFPGYTKGWYIQAPGKERELVATISRSGGSMFYADSVKGRFTISRDNAKNTVYLQMNSLKPEDTAVYYCNKSPSWWRYKTGLDYWGQGTQVTVSS | high polyreactivity
39 | QVQLVESGGGLVQAGGSLRLSCAASGFTFPKYAMGWYRQAPGKERELVAGITTGGSTYYADSVKGRFTISRDNAKNTVYLQMNSLKPEDTAVYYCAASGRLSLGGRFYDLGLRYDYWGQGTQVTVSS | low polyreactivity
40 | QVQLVESGGGLVQAGGSLRLSCAASGFTFPLNAMGWYRQAPGKEREFVAAITYSGGGTYYADSVKGRFTISRDNAKNTVYLQMNSLKPEDTAVYYCAAERGYQAHPGQGDYWGQGTQVTVSS | high polyreactivity
41 | QVQLVESGGGLVQAGGSLRLSCAASGFTFPRNAMGCYRQAPGKERELVAGISKSGGSTYYADSVKGRFTISRDNAKNTVYLQMNSLKPEDTAVYYCAKAVNSPRKYQLGNGYWGQGTQVTVSS | high polyreactivity
42 | QVQLVESGGGLVQAGGSLRLSCAASGFTFPRYAMGWYREAPGKEREFVAAINRGGSTYYADSVKGRFTISRDNAKNTVYLQMNSLKPEDTAVYYCITDRKNRPSPGDYYWGQGTQVTVSS | low polyreactivity
43 | QVQLVESGGGLVQAGGSLRLSCAASGFTFPRYAMGWYRQAPGKERELVAAITSGDRTYYADSVKGRFTISRDNAKNTVYLQMNSLKPEDTAVYYCATSSRYRYWHRYDYWGLGTQVTVSS | high polyreactivity

Source: the nanobody polyreactivity screen of Harvey et al. (2022)
